In paper PMC3650080, “Structural Insights into the UbiD Protein Family from the Crystal Structure of PA0254 from Pseudomonas aeruginosa” (PLoS ONE, 2013):

B1: PA0254 from Pseudomonas aeruginosa (UbiD-like protein) (enzyme, Pseudomonas aeruginosa PAO1, UniProt Q9I6N5 1-496, looked up)
chain: MNRSALDFRHFVDHLRRQGDLVDVHTEVDANLEIGAITRRVYERRAPAPLFHNIRDSLPGARVLGAPAGLRADRARAHSRLALHFGLPEHSGPRDIVAMLRAAMRAEPIAPRRLERGPVQENVWLGEQVDLTRFPVPLLHEQDGGRYFGTYGFHVVQTPDGSWDSWSVGRLMLVDRNTLAGPTIPTQHIGIIREQWRRLGKPTPWAMALGAPPAALAAAGMPLPEGVSEAGYVGALVGEPVEVVRTQTNGLWVPANTEIVLEGEISLDETALEGPMGEYHGYSFPIGKPQPLFHVHALSFRDQPILPICVAGTPPEENHTIWGTMISAQLLDVAQNAGLPVDMVWCSYEAATCWAVLSIDVQRLAALGTDAAAFAARVAETVFGSHAGHLVPKLILVGNDIDVTEIDQVVWALATRAHPLHDHFAFPQIRDFPMVPYLDAEDKARGSGGRLVINCLYPEQFAGQMRAATASFRHAYPTALRRRVEERWSDYGFGDA
notes: PA0254, UbiD-like putative 3-polyprenyl-4-hydroxybenzoate decarboxylase of Pseudomonas aeruginosa PAO1; full-length gene (residues 1-496 modelled); calculated mass of His6-PA0254 57053 Da per subunit; The TEV-cleavable His6 tag was not removed (incomplete cleavage); tag residues -7 to 0 are partly seen in the trigonal crystal; A SeMet-substituted form was used for phasing only; also called UbiD2; …
B2: UbiD from P. aeruginosa (PA5237) (enzyme, Pseudomonas aeruginosa PAO1, UniProt Q9HTV3 1-488, looked up)
chain: MTFKDLRDFIAQLEQRGALKRIQVPISPVLEMTEVCDRTLRAKGPALLFEKPTGFDMPVLGNLFGTPERVALGMGAEDVGALREIGKLLAQLKEPEPPKGLKDAWAKLPMYRKVLSMAPKVLKDAPCQEVVEEGEDVDLGRLPVQTCWPGDVGPLITWGLTVTRGPNKERQNLGIYRQQVIGRNKVIMRWLSHRGGALDYREWCQKHPGQPYPVAVALGADPATILGAVTPVPDTLSEYAFAGLLRGHRTELVKCRGSDLQVPASAEIVLEGVIHPGEMADEGPYGDHTGYYNEVDRFPVFTVERVTRRQKPIYHSTYTGRPPDEPAILGVALNEVFVPILQKQFPEIVDFYLPPEGCSYRMAVVTMKKQYPGHAKRVMLGVWSFLRQFMYTKFVIVTDDDIDARDWNDVIWAITTRMDPKRDTVMIDNTPIDYLDFASPVSGLGSKMGLDATHKWPGETSREWGRAIVKDEAVTRRIDALWSSLGID
notes: PA5237, UbiD (3-polyprenyl-4-hydroxybenzoate decarboxylase) of Pseudomonas aeruginosa PAO1; construct not described; also called UbiD1; bona fide UbiD

Tests used:
[1] = target: the molecule itself; test: crystal structure; two crystal forms of His6-PA0254: P2(1) (1 M (NH4)2SO4, 0.1 M Bis-Tris pH 5.5, 1% PEG 3350; 2.3 Å, four subunits in the asymmetric unit) and P3(2)21 (0.1 M Hepes pH 7.5, 0.2 M MgCl2, 10% PEG 400; 1.95 Å, three subunits); dimer told from crystal packing and PISA
[2] = target: the molecule itself; test: SEC; superdex-200 column (GE-Healthcare) calibrated with Ribonuclease-A, Chymotrypsinogen-A, Ovalbumin, Albumin, Catalase and Ferretin; absorbance at 280 nm

| Protein | stoichiometry N [1] | stoichiometry N [2] |
| --- | --- | --- |
| B1 | 2 |  |
| B2 |  | 6 |
